Data: PMC12416549 (2024)

T1: TNFR1 (Homo sapiens, UniProt P19438)
T1 chain: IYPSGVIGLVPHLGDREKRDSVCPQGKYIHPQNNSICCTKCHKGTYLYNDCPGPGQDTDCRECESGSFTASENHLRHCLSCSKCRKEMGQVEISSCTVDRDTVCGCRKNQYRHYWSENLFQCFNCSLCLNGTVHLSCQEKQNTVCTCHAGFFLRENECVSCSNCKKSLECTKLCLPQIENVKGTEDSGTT


Target: T1, TNFR1
Assay: yeast display SC50

| apparent Kd (screen) [nM] | Binder |
| --- | --- |
| 0.49 | E81R (designed binder) SMEEEVEKAAKEYEKKKKEAIEKHLEKLKAKDKEAAERFLKELEEAAKEYAKDEAKTMSEEEAKRRAKKYKEKVLLSELSREEQKEIKEAEEKLVRTILKYVEEAAK |
| 1.27 | S80Q (designed binder) SMEEEVEKAAKEYEKKKKEAIEKHLEKLKAKDKEAAERFLKELEEAAKEYAKDEAKTMSEEEAKRRAKKYKEKVLLSELQEEEQKEIKEAEEKLVRTILKYVEEAAK |
| 0.446 | E34F (designed binder) SMEEEVEKAAKEYEKKKKEAIEKHLEKLKAKDKFAAERFLKELEEAAKEYAKDEAKTMSEEEAKRRAKKYKEKVLLSELSEEEQKEIKEAEEKLVRTILKYVEEAAK |
| 0.539 | A35R (designed binder) SMEEEVEKAAKEYEKKKKEAIEKHLEKLKAKDKERAERFLKELEEAAKEYAKDEAKTMSEEEAKRRAKKYKEKVLLSELSEEEQKEIKEAEEKLVRTILKYVEEAAK |
| 2.48 | K69Y (designed binder) SMEEEVEKAAKEYEKKKKEAIEKHLEKLKAKDKEAAERFLKELEEAAKEYAKDEAKTMSEEEAKRRAKYYKEKVLLSELSEEEQKEIKEAEEKLVRTILKYVEEAAK |
| 5.31 | E14R (designed binder) SMEEEVEKAAKEYRKKKKEAIEKHLEKLKAKDKEAAERFLKELEEAAKEYAKDEAKTMSEEEAKRRAKKYKEKVLLSELSEEEQKEIKEAEEKLVRTILKYVEEAAK |
| 1.54 | E12W (designed binder) SMEEEVEKAAKWYEKKKKEAIEKHLEKLKAKDKEAAERFLKELEEAAKEYAKDEAKTMSEEEAKRRAKKYKEKVLLSELSEEEQKEIKEAEEKLVRTILKYVEEAAK |
| 3 | R96A (designed binder) SMEEEVEKAAKEYEKKKKEAIEKHLEKLKAKDKEAAERFLKELEEAAKEYAKDEAKTMSEEEAKRRAKKYKEKVLLSELSEEEQKEIKEAEEKLVATILKYVEEAAK |

Second part, the binder before the results:

| Binder | apparent Kd (screen) [nM] |
| --- | --- |
| E78D (designed binder) SMEEEVEKAAKEYEKKKKEAIEKHLEKLKAKDKEAAERFLKELEEAAKEYAKDEAKTMSEEEAKRRAKKYKEKVLLSDLSEEEQKEIKEAEEKLVRTILKYVEEAAK | 1.86 |
| S1R (designed binder) RMEEEVEKAAKEYEKKKKEAIEKHLEKLKAKDKEAAERFLKELEEAAKEYAKDEAKTMSEEEAKRRAKKYKEKVLLSELSEEEQKEIKEAEEKLVRTILKYVEEAAK | 0.869 |
| K23N (designed binder) SMEEEVEKAAKEYEKKKKEAIENHLEKLKAKDKEAAERFLKELEEAAKEYAKDEAKTMSEEEAKRRAKKYKEKVLLSELSEEEQKEIKEAEEKLVRTILKYVEEAAK | 0.49 |
| V102Q (designed binder) SMEEEVEKAAKEYEKKKKEAIEKHLEKLKAKDKEAAERFLKELEEAAKEYAKDEAKTMSEEEAKRRAKKYKEKVLLSELSEEEQKEIKEAEEKLVRTILKYQEEAAK | 0.208 |
| E3H (designed binder) SMHEEVEKAAKEYEKKKKEAIEKHLEKLKAKDKEAAERFLKELEEAAKEYAKDEAKTMSEEEAKRRAKKYKEKVLLSELSEEEQKEIKEAEEKLVRTILKYVEEAAK | 1.86 |
